T1: BmExd1 full-length (UniProt H9IUR0 1-315)
T1 sequence: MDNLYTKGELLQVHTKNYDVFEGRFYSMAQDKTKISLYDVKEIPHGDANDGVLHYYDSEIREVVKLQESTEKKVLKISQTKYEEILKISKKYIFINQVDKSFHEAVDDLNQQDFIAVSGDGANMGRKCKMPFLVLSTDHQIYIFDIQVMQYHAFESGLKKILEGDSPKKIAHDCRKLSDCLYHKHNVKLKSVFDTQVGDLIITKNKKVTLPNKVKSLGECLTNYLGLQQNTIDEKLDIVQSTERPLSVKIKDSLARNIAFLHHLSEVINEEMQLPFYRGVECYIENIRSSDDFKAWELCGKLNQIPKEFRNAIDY


Tests used:
[1] = target: recombinant full-length BmExd1 (Bombyx mori); assay: AUC
[2] = target: T1, BmExd1 full-length; assay: ITC

| stoichiometry N [1] | Molecule | Kd [2] [µM] |
| --- | --- | --- |
| 2 | recombinant full-length BmExd1 (natural protein) | – |
| – | GGGGUAUUCUUUAAUUAUUUC (ssRNA) [ITC RNA (21 nt)] | 27 |
